T1: FcγRIIb extracellular domain with C-terminal His tag (human, UniProt P31994 43-217)
T1 construct: extracellular domain; soluble receptor expressed in FreeStyle293 cells, used as analyte in Biacore; also called FcgRIIb; 2b; not shown: His tag attached to the C terminus
T1 sequence (looked up): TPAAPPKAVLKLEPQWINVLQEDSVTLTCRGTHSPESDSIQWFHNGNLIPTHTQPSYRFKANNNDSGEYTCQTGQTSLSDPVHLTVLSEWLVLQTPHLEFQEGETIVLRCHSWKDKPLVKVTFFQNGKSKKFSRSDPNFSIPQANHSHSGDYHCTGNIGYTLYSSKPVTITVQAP


Tests used:
[1] = target: T2, FcγRIa extracellular domain with C-terminal His tag (human, UniProt P12314 16-292); assay: SPR (Biacore), antibody captured on antigen peptide chip, FcγR as analyte; relative binding
T2 construct: extracellular domain; soluble receptor expressed in FreeStyle293 cells, used as analyte in Biacore; also called FcgRI; 1a; not shown: His tag attached to the C terminus
T2 sequence (P12314 16-292): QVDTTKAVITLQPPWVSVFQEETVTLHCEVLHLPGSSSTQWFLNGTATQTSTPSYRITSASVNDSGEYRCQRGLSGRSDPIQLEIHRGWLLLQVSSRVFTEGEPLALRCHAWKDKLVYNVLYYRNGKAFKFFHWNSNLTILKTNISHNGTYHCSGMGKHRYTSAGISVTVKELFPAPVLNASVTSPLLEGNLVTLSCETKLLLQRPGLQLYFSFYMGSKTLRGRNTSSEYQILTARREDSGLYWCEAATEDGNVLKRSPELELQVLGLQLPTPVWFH

[2] = target: T1, FcγRIIb extracellular domain with …; assay: as above

| Binder | He/Con_1a [1] | He/Con_2b [2] |
| --- | --- | --- |
| GpH7-A5/GpH7-B3 variant P271_20W/GpL16-k0 (antibody, human IgG1, kappa, heterodimerized anti-glypican-3 IgG1; alteration in the GpH7-B3 chain only; also called He Ab) heavy 1: not shown heavy 2: not shown light: DIVMTQSPLSLPVTPGEPASISCQASESLVHSNRNTYLHWYLQKPGQSPQLLIYKVSNRFSGVPDRFSGSGSGTDFTLKISRVEAEDVGVYYCSQNTHVPPTFGQGTKVEIERTVAAPSVFIFPPSDEQLKSGTASVVCLLNNFYPREAKVQWKVDNALQSGNSQESVTEQDSKDSTYSLSSTLTLSKADYEKHKVYACEVTHQGLSSPVTKSFNRGEC | 103 % of control GpH7-A5/GpH7-B3/GpL16-k0 (=100) | 58.1 % of control GpH7-A5/GpH7-B3/GpL16-k0 (=100) |
| GpH7-A5/GpH7-B3 variant Q295_01G/GpL16-k0 (antibody, human IgG1, kappa, heterodimerized anti-glypican-3 IgG1; alteration in the GpH7-B3 chain only; also called He Ab) heavy 1: not shown heavy 2: not shown light: DIVMTQSPLSLPVTPGEPASISCQASESLVHSNRNTYLHWYLQKPGQSPQLLIYKVSNRFSGVPDRFSGSGSGTDFTLKISRVEAEDVGVYYCSQNTHVPPTFGQGTKVEIERTVAAPSVFIFPPSDEQLKSGTASVVCLLNNFYPREAKVQWKVDNALQSGNSQESVTEQDSKDSTYSLSSTLTLSKADYEKHKVYACEVTHQGLSSPVTKSFNRGEC | 97.6 % of control GpH7-A5/GpH7-B3/GpL16-k0 (=100) | 46 % of control GpH7-A5/GpH7-B3/GpL16-k0 (=100) |
| GpH7-A5/GpH7-B3 variant S324_08L/GpL16-k0 (antibody, human IgG1, kappa, heterodimerized anti-glypican-3 IgG1; alteration in the GpH7-B3 chain only; also called He Ab) heavy 1: not shown heavy 2: not shown light: DIVMTQSPLSLPVTPGEPASISCQASESLVHSNRNTYLHWYLQKPGQSPQLLIYKVSNRFSGVPDRFSGSGSGTDFTLKISRVEAEDVGVYYCSQNTHVPPTFGQGTKVEIERTVAAPSVFIFPPSDEQLKSGTASVVCLLNNFYPREAKVQWKVDNALQSGNSQESVTEQDSKDSTYSLSSTLTLSKADYEKHKVYACEVTHQGLSSPVTKSFNRGEC | 103 % of control GpH7-A5/GpH7-B3/GpL16-k0 (=100) | 89.6 % of control GpH7-A5/GpH7-B3/GpL16-k0 (=100) |
| GpH7-A5/GpH7-B3 variant Q295_07I/GpL16-k0 (antibody, human IgG1, kappa, heterodimerized anti-glypican-3 IgG1; alteration in the GpH7-B3 chain only; also called He Ab) heavy 1: not shown heavy 2: not shown light: DIVMTQSPLSLPVTPGEPASISCQASESLVHSNRNTYLHWYLQKPGQSPQLLIYKVSNRFSGVPDRFSGSGSGTDFTLKISRVEAEDVGVYYCSQNTHVPPTFGQGTKVEIERTVAAPSVFIFPPSDEQLKSGTASVVCLLNNFYPREAKVQWKVDNALQSGNSQESVTEQDSKDSTYSLSSTLTLSKADYEKHKVYACEVTHQGLSSPVTKSFNRGEC | 103 % of control GpH7-A5/GpH7-B3/GpL16-k0 (=100) | 84.3 % of control GpH7-A5/GpH7-B3/GpL16-k0 (=100) |
| GpH7-A5/GpH7-B3 variant Q295_11K/GpL16-k0 (antibody, human IgG1, kappa, heterodimerized anti-glypican-3 IgG1; alteration in the GpH7-B3 chain only; also called He Ab) heavy 1: not shown heavy 2: not shown light: DIVMTQSPLSLPVTPGEPASISCQASESLVHSNRNTYLHWYLQKPGQSPQLLIYKVSNRFSGVPDRFSGSGSGTDFTLKISRVEAEDVGVYYCSQNTHVPPTFGQGTKVEIERTVAAPSVFIFPPSDEQLKSGTASVVCLLNNFYPREAKVQWKVDNALQSGNSQESVTEQDSKDSTYSLSSTLTLSKADYEKHKVYACEVTHQGLSSPVTKSFNRGEC | 101 % of control GpH7-A5/GpH7-B3/GpL16-k0 (=100) | 70.4 % of control GpH7-A5/GpH7-B3/GpL16-k0 (=100) |

The remaining lines, values ahead:

| He/Con_1a [1] | He/Con_2b [2] | Binder |
| --- | --- | --- |
| 100 % of control GpH7-A5/GpH7-B3/GpL16-k0 (=100) | 60.8 % of control GpH7-A5/GpH7-B3/GpL16-k0 (=100) | GpH7-A5/GpH7-B3 variant Q295_09D/GpL16-k0 (antibody, human IgG1, kappa, heterodimerized anti-glypican-3 IgG1; alteration in the GpH7-B3 chain only; also called He Ab) heavy 1: not shown heavy 2: not shown light: DIVMTQSPLSLPVTPGEPASISCQASESLVHSNRNTYLHWYLQKPGQSPQLLIYKVSNRFSGVPDRFSGSGSGTDFTLKISRVEAEDVGVYYCSQNTHVPPTFGQGTKVEIERTVAAPSVFIFPPSDEQLKSGTASVVCLLNNFYPREAKVQWKVDNALQSGNSQESVTEQDSKDSTYSLSSTLTLSKADYEKHKVYACEVTHQGLSSPVTKSFNRGEC |
| 103 % of control GpH7-A5/GpH7-B3/GpL16-k0 (=100) | 66.8 % of control GpH7-A5/GpH7-B3/GpL16-k0 (=100) | GpH7-A5/GpH7-B3 variant Q295_14T/GpL16-k0 (antibody, human IgG1, kappa, heterodimerized anti-glypican-3 IgG1; alteration in the GpH7-B3 chain only; also called He Ab) heavy 1: not shown heavy 2: not shown light: DIVMTQSPLSLPVTPGEPASISCQASESLVHSNRNTYLHWYLQKPGQSPQLLIYKVSNRFSGVPDRFSGSGSGTDFTLKISRVEAEDVGVYYCSQNTHVPPTFGQGTKVEIERTVAAPSVFIFPPSDEQLKSGTASVVCLLNNFYPREAKVQWKVDNALQSGNSQESVTEQDSKDSTYSLSSTLTLSKADYEKHKVYACEVTHQGLSSPVTKSFNRGEC |
| 102 % of control GpH7-A5/GpH7-B3/GpL16-k0 (=100) | 68.6 % of control GpH7-A5/GpH7-B3/GpL16-k0 (=100) | GpH7-A5/GpH7-B3 variant S324_11K/GpL16-k0 (antibody, human IgG1, kappa, heterodimerized anti-glypican-3 IgG1; alteration in the GpH7-B3 chain only; also called He Ab) heavy 1: not shown heavy 2: not shown light: DIVMTQSPLSLPVTPGEPASISCQASESLVHSNRNTYLHWYLQKPGQSPQLLIYKVSNRFSGVPDRFSGSGSGTDFTLKISRVEAEDVGVYYCSQNTHVPPTFGQGTKVEIERTVAAPSVFIFPPSDEQLKSGTASVVCLLNNFYPREAKVQWKVDNALQSGNSQESVTEQDSKDSTYSLSSTLTLSKADYEKHKVYACEVTHQGLSSPVTKSFNRGEC |
| 102 % of control GpH7-A5/GpH7-B3/GpL16-k0 (=100) | 40.5 % of control GpH7-A5/GpH7-B3/GpL16-k0 (=100) | GpH7-A5/GpH7-B3 variant P329_02A/GpL16-k0 (antibody, human IgG1, kappa, heterodimerized anti-glypican-3 IgG1; alteration in the GpH7-B3 chain only; also called He Ab) heavy 1: not shown heavy 2: not shown light: DIVMTQSPLSLPVTPGEPASISCQASESLVHSNRNTYLHWYLQKPGQSPQLLIYKVSNRFSGVPDRFSGSGSGTDFTLKISRVEAEDVGVYYCSQNTHVPPTFGQGTKVEIERTVAAPSVFIFPPSDEQLKSGTASVVCLLNNFYPREAKVQWKVDNALQSGNSQESVTEQDSKDSTYSLSSTLTLSKADYEKHKVYACEVTHQGLSSPVTKSFNRGEC |
| 101 % of control GpH7-A5/GpH7-B3/GpL16-k0 (=100) | 41.7 % of control GpH7-A5/GpH7-B3/GpL16-k0 (=100) | GpH7-A5/GpH7-B3 variant P329_01G/GpL16-k0 (antibody, human IgG1, kappa, heterodimerized anti-glypican-3 IgG1; alteration in the GpH7-B3 chain only; also called He Ab) heavy 1: not shown heavy 2: not shown light: DIVMTQSPLSLPVTPGEPASISCQASESLVHSNRNTYLHWYLQKPGQSPQLLIYKVSNRFSGVPDRFSGSGSGTDFTLKISRVEAEDVGVYYCSQNTHVPPTFGQGTKVEIERTVAAPSVFIFPPSDEQLKSGTASVVCLLNNFYPREAKVQWKVDNALQSGNSQESVTEQDSKDSTYSLSSTLTLSKADYEKHKVYACEVTHQGLSSPVTKSFNRGEC |

Source: patent publication US20180155451A1 (published 2018)
